Measurements: publication PMC11128890 (Frontiers in Cell and Developmental Biology, 2024)

B1: recombinant soluble integrin αvβ3 [not stated] / VEGF165 heparin-binding domain (HBD), wild type [human] (parent complex)
chain 1: FNLDVDSPAEYSGPEGSYFGFAVDFFVPSASSRMFLLVGAPKANTTQPGIVEGGQVLKCDWSSTRRCQPIEFDATGNRDYAKDDPLEFKSHQWFGASVRSKQDKILACAPLYHWRTEMKQEREPVGTCFLQDGTKTVEYAPCRSQDIDADGQGFCQGGFSIDFTKADRVLLGGPGSFYWQGQLISDQVAEIVSKYDPNVYSIKYNNQLATRTAQAIFDDSYLGYSVAVGDFNGDGIDDFVSGVPRAARTLGMVYIYDGKNMSSLYNFTGEQMAAYFGFSVAATDINGDDYADVFIGAPLFMDRGSDGKLQEVGQVSVSLQRASGDFQTTKLNGFEVFARFGSAIAPLGDLDQDGFNDIAIAAPYGGEDKKGIVYIFNGRSTGLNAVPSQILEGQWAARSMPPSFGYSMKGATDIDKNGYPDLIVGAFGVDRAILYRARPVITVNAGLEVYPSILNQDNKTCSLPGTALKVSCFNVRFCLKADGKGVLPRKLNFQVELLLDKLKQKGAIRRALFLYSRSPSHSKNMTISRGGLMQCEELIAYLRDESEFRDKLTPITIFMEYRLDYRTAADTTGLQPILNQFTPANISRQAHILLDCGEDNVCKPKLEVSVDSDQKKIYIGDDNPLTLIVKAQNQGEGAYEAELIVSIPLQADFIGVVRNNEALARLSCAFKTENQTRQVVCDLGNPMKAGTQLLAGLRFSVHQQSEMDTSVKFDLQIQSSNLFDKVSPVVSHKVDLAVLAAVEIRGVSSPDHVFLPIPNWEHKENPETEEDVGPVVQHIYELRNNGPSSFSKAMLHLQWPYKYNNNTLLYILHYDIDGPMNCTSDMEINPLRIKISSLQTTEKNDTVAGQGERDHLITKRDLALSEGDIHTLGCGVAQCLKIVCQVGRLDRGKSAILYVKSLLWTETFMNKENQNHSYSLKSSASFNVIEFPYKNLPIEDITNSTLVTTNVTWGIQP
chain 2: GPNICTTRGVSSCQQCLAVSPMCAWCSDEALPLGSPRCDLKENLLKDNCAPESIEFPVSEARVLEDRPLSDKGSGDSSQVTQVSPQRIALRLRPDDSKNFSIQVRQVEDYPVDIYYLMDLSYSMKDDLWSIQNLGTKLATQMRKLTSNLRIGFGAFVDKPVSPYMYISPPEALENPCYDMKTTCLPMFGYKHVLTLTDQVTRFNEEVKKQSVSRNRDAPEGGFDAIMQATVCDEKIGWRNDASHLLVFTTDAKTHIALDGRLAGIVQPNDGQCHVGSDNHYSASTTMDYPSLGLMTEKLSQKNINLIFAVTENVVNLYQNYSELIPGTTVGVLSMDSSNVLQLIVDAYGKIRSKVELEVRDLPEELSLSFNATCLNNEVIPGLKSCMGLKIGDTVSFSIEAKVRGCPQEKEKSFTIKPVGFKDSLIVQVTFDCDCACQAQAEPNSHRCNNGNGTFECGVCRCGPGWLGSQCECSEEDYRPSQQDECSPREGQPVCSQRGECLCGQCVCHSSDFGKITGKYCECDDFSCVRYKGEMCSGHGQCSCGDCLCDSDWTGYYCNCTTRTDTCMSSNGLLCSGRGKCECGSCVCIQPGSYGDTCEKCPTCPDACTFKKECVECKKFDRGALHDENTCNRYCRDEIESVKELKDTGKDAVNCTYKNEDDCVVRFQYYEDSSGKSILYVVEEPECPKGPD
chain 3: PCGPCSERRKHLFVQDPQTCKCSCKNTDSRCKARQLELNERTCRCDKPRR

Variants of: B1
Assay: ELISA-type binding assay; HBD coated at 2.5 µg/ml; n=3; read off a plot

response [OD450]	Variant
~0.3	chain 3 K25A, chain 3 R30A, chain 3 R34A
~0.25	chain 3 R8A, chain 3 R9A, chain 3 K10A
~0.02	chain 3 R8A, chain 3 R9A, chain 3 K10A, chain 3 K25A, chain 3 R30A, chain 3 R34A

Variants of: B1
Assay: ELISA-type binding assay; HBD coated at 5 µg/ml (highest point of the curve); read off a plot

response [OD450]	Variant
~1.1	chain 3 K25A, chain 3 R30A, chain 3 R34A
~0.78	chain 3 R8A, chain 3 R9A, chain 3 K10A
~0.11	chain 3 R8A, chain 3 R9A, chain 3 K10A, chain 3 K25A, chain 3 R30A, chain 3 R34A
